Assay results taken from article PMC11209835 (Cell metabolism, 2024).

T1: Flag-HA-tagged ALOX12, purified (UniProt P18054 1-663)
T1 sequence (looked up): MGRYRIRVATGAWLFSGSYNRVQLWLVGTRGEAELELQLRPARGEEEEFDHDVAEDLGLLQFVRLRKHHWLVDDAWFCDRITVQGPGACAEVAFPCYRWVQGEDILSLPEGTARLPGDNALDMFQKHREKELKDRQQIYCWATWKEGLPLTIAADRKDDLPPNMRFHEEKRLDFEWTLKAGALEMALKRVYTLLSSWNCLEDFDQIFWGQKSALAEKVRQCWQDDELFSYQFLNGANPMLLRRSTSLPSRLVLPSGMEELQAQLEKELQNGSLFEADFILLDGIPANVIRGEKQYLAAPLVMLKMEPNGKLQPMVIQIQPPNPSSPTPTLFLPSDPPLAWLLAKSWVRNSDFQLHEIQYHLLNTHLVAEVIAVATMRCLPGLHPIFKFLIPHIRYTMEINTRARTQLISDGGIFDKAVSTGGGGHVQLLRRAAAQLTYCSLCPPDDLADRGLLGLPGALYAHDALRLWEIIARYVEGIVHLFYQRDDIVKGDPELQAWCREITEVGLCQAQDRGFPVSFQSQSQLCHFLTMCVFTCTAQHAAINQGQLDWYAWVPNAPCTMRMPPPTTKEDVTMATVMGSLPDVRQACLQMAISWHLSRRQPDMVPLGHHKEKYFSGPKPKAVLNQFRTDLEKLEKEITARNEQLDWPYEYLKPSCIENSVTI

B1: GST-PHLDA2-PH (amino acids 7-101) (domain or fragment, human, UniProt Q53GA4 7-101, looked up)
chain: VLREGELEKRSDSLFQLWKKKRGVLTSDRLSLFPASPRARPKELRFHSILKVDCVERTGKYVYFTIVTTDHKEIDFRCAGESCWNAAIALALIDF
B2: GST-PHLDA2 Full-length (amino acids 1-152) (natural protein, human, UniProt Q53GA4 1-152, looked up)
chain: MKSPDEVLREGELEKRSDSLFQLWKKKRGVLTSDRLSLFPASPRARPKELRFHSILKVDCVERTGKYVYFTIVTTDHKEIDFRCAGESCWNAAIALALIDFQNRRALQDFRSRQERTAPAAPAEDAVAAAAAAPSEPSEPSRPSPQPKPRTP

Molecular target: T1, Flag-HA-tagged ALOX12, purified
Assay: pull-down

Binder	binding result
B1	binds
B2	binds
